Test results as given in publication PMC3973317, “Solution structure and tandem DNA recognition of the C-terminal effector domain of PmrA from Klebsiella pneumoniae”.

Tests used:
[1] = biological target: T1, PmrAC (C-terminal effector/DNA-binding domain of PmrA) (Klebsiella pneumoniae, UniProt W9BNR5 121-223); test: fluorescence polarization; 20 mM sodium phosphate, 30 mM NaCl, pH 6.0; FP with 12 nM 6-FAM DNA (temperature not stated); ITC plus 0.5 mM EDTA at 25 C; NMR at 298 K; conditions: protein: recombinant; tags: N-terminal extra Met; chain copies: 2; label: 5' 6-FAM (fluorescence polarization); none (NMR); blunt
T1 sequence: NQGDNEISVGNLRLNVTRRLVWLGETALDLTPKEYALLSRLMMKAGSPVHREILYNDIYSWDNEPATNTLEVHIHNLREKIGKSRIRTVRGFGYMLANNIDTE

[2] = biological target: T1, PmrAC (C-terminal effector/DNA-binding …); test: NMR PRE; Mn2+ or Ca2+; 1:1; label does not affect interaction; 20 mM sodium phosphate, 30 mM NaCl, pH 6.0; FP with 12 nM 6-FAM DNA (temperature not stated); ITC plus 0.5 mM EDTA at 25 C; NMR at 298 K; conditions: protein: recombinant; tags: N-terminal extra Met; chain copies: 2; label: EDTA spin label (Mn2+/Ca2+); blunt
[3] = biological target: T1, PmrAC (C-terminal effector/DNA-binding …); test: NMR PRE; Mn2+ or Ca2+; 2:1 protein:DNA; label does not affect interaction; 20 mM sodium phosphate, 30 mM NaCl, pH 6.0; FP with 12 nM 6-FAM DNA (temperature not stated); ITC plus 0.5 mM EDTA at 25 C; NMR at 298 K; conditions: protein: recombinant; tags: N-terminal extra Met; chain copies: 2; label: EDTA spin label (Mn2+/Ca2+); blunt
[4] = biological target: T1, PmrAC (C-terminal effector/DNA-binding …); test: fluorescence polarization; two-site fit, first site (half1); 20 mM sodium phosphate, 30 mM NaCl, pH 6.0; FP with 12 nM 6-FAM DNA (temperature not stated); ITC plus 0.5 mM EDTA at 25 C; NMR at 298 K; conditions: protein: recombinant; tags: N-terminal extra Met; chain copies: 2; label: 5' 6-FAM (fluorescence polarization); none (NMR); blunt
[5] = biological target: T1, PmrAC (C-terminal effector/DNA-binding …); test: NMR titration; range over residues; 20 mM sodium phosphate, 30 mM NaCl, pH 6.0; FP with 12 nM 6-FAM DNA (temperature not stated); ITC plus 0.5 mM EDTA at 25 C; NMR at 298 K; conditions: protein: recombinant; tags: N-terminal extra Met; chain copies: 2; blunt
[6] = biological target: T1, PmrAC (C-terminal effector/DNA-binding …); test: ITC; 1:1 stoichiometry; 0.5 mM EDTA; 20 mM sodium phosphate, 30 mM NaCl, pH 6.0; FP with 12 nM 6-FAM DNA (temperature not stated); ITC plus 0.5 mM EDTA at 25 C; NMR at 298 K; conditions: protein: recombinant; tags: N-terminal extra Met; chain copies: 2; blunt
[7] = biological target: T1, PmrAC (C-terminal effector/DNA-binding …); test: ITC; 2:1 protein:DNA; one-site fit; 0.5 mM EDTA; 20 mM sodium phosphate, 30 mM NaCl, pH 6.0; FP with 12 nM 6-FAM DNA (temperature not stated); ITC plus 0.5 mM EDTA at 25 C; NMR at 298 K; conditions: protein: recombinant; tags: N-terminal extra Met; chain copies: 2; blunt

B1: box1a (dsDNA)
DNA 1: AATTTCTTAATATTAT
DNA 2: ATAATATTAAGAAATT
- Kd [1]: 0.13 ± 0.01 µM

B2: box1b (dsDNA)
DNA 1: ATTATCCTAAGCAAGG
DNA 2: CCTTGCTTAGGATAAT
- Kd [1]: 9.3 ± 1.5 µM

B3: box1 dT-EDTA at THY4 (dsDNA)
DNA 1: ATTTCTTAATATTATCCTAAGCAAG
DNA 2: CTTGCTTAGGATAATATTAAGAAAT
modifications: dT-EDTA at T4 of strand 1
- binding result [2]: binds

B4: box1 dT-EDTA at THY28 (dsDNA)
DNA 1: ATTTCTTAATATTATCCTAAGCAAG
DNA 2: CTTGCTTAGGATAATATTAAGAAAT
modifications: dT-EDTA at THY28 (strand 2, position 3)
- binding result [3]: binds

B5: box1 (dsDNA)
DNA 1: ATTTCTTAATATTATCCTAAGCAAG
DNA 2: CTTGCTTAGGATAATATTAAGAAAT
- Kd [4]: 0.19 ± 0.01 µM

B6: box2b (dsDNA)
DNA 1: CGTTTAAGTCCG
DNA 2: CGGACTTAAACG
- Kd [5]: 31.9 µM
- Kd [6]: 36.5 ± 9.4 µM

B7: box2 (dsDNA)
DNA 1: TCATTTTAATTTCGTTTAAGTCCG
DNA 2: CGGACTTAAACGAAATTAAAATGA
- Kd [7]: 0.97 ± 0.13 µM
